Test results taken from US20090233317.

Key:
[1] = system: recombinantly expressed GRIM1 aa 3-147
[2] = system: hsGRIM1 (human Global Repressor Involved in Myogenic differentiation), full length aa 1-749

HAT domain of p300 (bacterially expressed)
acetylation of GRIM1 [1]: detection of direct acetylation of GRIM1 (aa3-147 and of full-length GRIM1) by the HAT domain of p300
acetylation of GRIM1 [2]: detection of direct acetylation of GRIM1 (aa3-147 and of full-length GRIM1) by the HAT domain of p300
